Reference: the supplement of paper PMC12042874
± gives the uncertainty stated by the source.

Test: amyloid nucleation score (Sup35N fusion, yeast selection) (log enrichment); library NNK3; higher = more nucleation; inactive = no reads after selection
Outline: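 Psi-negative yeast expressed Sup35N fused to peptides of 20 random codons. They were induced 24 hours with 100 μM copper sulfate, grown 7 days at 30°C without adenine and uracil, and their plasmid inserts from input and output were Illumina-sequenced. The nucleation score is the DiMSum log enrichment of output over input reads, centred on the mode score of non-aggregating sequences. Sequences with under 100 input reads were excluded.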

Substance | amyloid nucleation score
KLCTVSNRSVMPGIT | inactive
FNYMCNLNVCRNIILMTLEL | 2.69 ± 0.07
FSVHRGLLFITQGSDVAEHV | inactive
NWSTIECMYMASVVLNARFG | inactive
VYDMDNVRYNHRGNTERFSG | 0.109 ± 0.28
CILYLHIAALVLLI | -1.33 ± 2.5
FNANI | 0.12 ± 0.34
RAGVVVFIRRLRRLMGTLGA | -0.005 ± 1.1
MCDCL | inactive
WTLFWNPLI | inactive
NHLIQIG | inactive
LCKQTSTTNLSGV | inactive
ALVDILFLDLGLTLDLRVGL | inactive
GGLSS | -0.809 ± 0.71
SRFVYSSGY | inactive
GLLRTLSQDMTCGRDAGQGN | inactive
VLVNPILLPMPLQ | inactive
SCSDW | inactive
SLWHMRVWMLCCKGPKTWRF | inactive
GCDILQFRHCF | inactive
KWSLFLYRHGWCRLAGTLLV | -0.443 ± 1
KLFYQMILYRNG | inactive
FLRCIC | inactive

Substance | amyloid nucleation score
ICTPENT | -0.303 ± 0.9
YIKCKFF | inactive
YPSSPGH | inactive
SFNTLIILSILFVLRQCGTR | inactive
FCTVNH | inactive
SVLGRHYVYLLSIVCGVIFG | inactive
MKCLEGMHFIIFLVLALCIY | inactive
YNWIC | inactive
TAESEMNQCVLSRYFSSAIR | inactive
DWEARCCREVTGNGVFESQK | inactive
NALRFNLWMLNTVKVEYRSD | 2.15 ± 0.067
HQNSCDMLFRLSSTYLWGRA | inactive
MIDDYRECSYIYF | inactive
DRNEQCDSL | inactive
LRGTD | inactive
CLRSVDDWFKC | inactive
FTYVLTLMSFNGGPRGRYGW | 2.66 ± 0.068
QALPSRLGSAGFDYWPPAMS | -0.039 ± 0.53
TIGFFSVVNYVWFSAYNWQS | -0.453 ± 0.35
LERYWCTNRGFNRWMQAYKD | inactive
PFGGMVLLILNDAFSMVYVS | inactive
RITLSIDLLSSEYNRIAPRR | 1.82 ± 0.089
HFLRRTDFYTANWA | inactive

Substance | amyloid nucleation score
FATVDDMSTGFRYIFLITRA | inactive
VNCWLLAVFTASSATLHNTR | 0.776 ± 0.14
SSLIGRVDRIMYVSARERTI | inactive
TVGSRGSTPHCTLLLVSWSL | inactive
TVHILANRPRAQYD | inactive
SVSFVDSRLLYVKICLSALG | inactive
IRSPWTSRAVCGGADV | inactive
PDLIDVFGE | inactive
RCSVVTSFQGICMACKYAGG | 1.26 ± 0.1
RAHICSYSFAIYVFVCN | 0.661 ± 0.13
GCTFRNWIWWLHRFDKMR | 0.861 ± 0.15
AGESEISVRMEKSHSGVASR | -0.436 ± 1.7
GTVGHYRLST | inactive
GVRLNVDRAVKVARELFH | inactive
LVVATRRLMYGHRKVYAWVD | inactive
WLCLEYMVDEADNFSDGAWM | inactive
NKGSVDGYMFSTGVTFLMLE | inactive
KCAVDTV | inactive
RLGFRRIRIIRSSGFSEEWH | 0.224 ± 0.39
GSVSPGNSILICFWFFWLLW | inactive
HSFVSWTRLT | inactive
QSRMLELS | inactive
